# Assay results taken from patent US7754689B2, “Finger-1 peptide analogs of the TGF-β superfamily” (Wyeth LLC, priority 2006, dated 2010).
# No end group written: not given here.
# T1: BMP-12 (UniProt Q7Z4P5 322-450, limits assumed)
# T1 construct: also called BMP12/GDF7
# T1 sequence (looked up): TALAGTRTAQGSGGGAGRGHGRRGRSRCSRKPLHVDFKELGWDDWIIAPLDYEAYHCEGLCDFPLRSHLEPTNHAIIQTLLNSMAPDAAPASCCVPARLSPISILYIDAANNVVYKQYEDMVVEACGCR
# How the values were obtained:
# BMP-12 [1] = molecular target: T1, BMP-12; test: peptide resin, filter plate; load 4: 25 mM MES pH 6.0
# Description: (§1) The coupled resins, plus an unconjugated resin for use as a control, were suspended in 16% ethanol, 150 mM NaCl, and 20 mM Tris buffer at pH 7.5 at a 25% v/v ratio (e.g., 25% ethanol, 75% Tris buffer). A Tecan liquid-handling robot was employed to aliquot 200 μL of each slurry into one of eight rows of a 96 well polystyrene filter plate (0.45 μm hydrophilic filters, Whatman catalog number 770-1806). Spinning at 1200 g for 3 min removed the liquid phase, leaving 50 μL of wet resin on the filters. The resins were then equilibrated with the loading buffers listed in Table 6 (K is a coefficient characterizing the strength of protein binding to a particular resin in a particular buffer). […] The resins were loaded by transferring 150 μL from the load plate to the filter plate and then incubating 20 min on a shaking platform to facilitate binding. The filter plate was spun down and the filtrate collected in a 96 well UV plate. The protein concentration in the filtrate, or flow-through, was calculated as $(A280-A320)/1.3$. The filter plate was then washed with 150 μL of 100 mM acetic acid, followed by 150 μL of 4M guanidine-HCl and 50 mM sodium acetate at pH 4.0. The protein concentration was measured in the new filtrate as described above. […] Flow-through and acetic acid elution samples from column 4 of the plate (loaded with MES pH 6) were analyzed on a gel (FIG. 14).
# BMP-12 [2] = molecular target: T1, BMP-12; test: peptide resin, filter plate; load 2: 50 mM Acetic Acid, 0.1 M NaCl, pH 4.0
# Description: as §1
# BMP-12 [3] = molecular target: T1, BMP-12; test: peptide resin, filter plate; load 12: 50 mM Tris, 0.1 M NaCl, 20% MPD, pH 8.0
# Description: as §1
# BMP-12 [4] = molecular target: T1, BMP-12; test: peptide resin, filter plate; load 10: 50 mM Tris, 0.1 M NaCl, 40% MPD, pH 8.0
# Description: as §1
# BMP-12 [5] = molecular target: T1, BMP-12; test: peptide resin, filter plate; load 5: 25 mM HEPES pH 7.0
# Description: as §1
# BMP-12 [6] = molecular target: T1, BMP-12; test: peptide resin, filter plate; load 11: 50 mM Tris, 0.25 M NaCl, 30% MPD, pH 8.0
# Description: as §1
# BMP-12 [7] = molecular target: T1, BMP-12; test: peptide resin, filter plate; load 1: 50 mM Acetic Acid, 0.1 M NaCl, pH 2.9
# Description: as §1
# BMP-12 [8] = molecular target: T1, BMP-12; test: peptide resin, filter plate; load 6: 1M CHES pH 9.7
# Description: as §1
# BMP-12 [9] = molecular target: T1, BMP-12; test: peptide resin, filter plate; load 3: 25 mM Na Acetate pH 5.0
# Description: as §1
Binder,100 mM HAc elution K (BMP-12 [1]),100 mM HAc elution conc (BMP-12 [1]) [mg/mL],"4M Gnd, 50 mM NaAc pH 4 Strip Conc (BMP-12 [1]) [mg/ml]",Flow-through K (BMP-12 [1]),Flow-through conc (BMP-12 [1]) [mg/mL],100 mM HAc elution K (BMP-12 [2]),100 mM HAc elution conc (BMP-12 [2]) [mg/mL],"4M Gnd, 50 mM NaAc pH 4 Strip Conc (BMP-12 [2]) [mg/ml]",Flow-through K (BMP-12 [2]),Flow-through conc (BMP-12 [2]) [mg/mL],Flow-through K (BMP-12 [3]),Flow-through conc (BMP-12 [3]) [mg/mL],Flow-through K (BMP-12 [4]),Flow-through conc (BMP-12 [4]) [mg/mL],100 mM HAc elution K (BMP-12 [5]),100 mM HAc elution conc (BMP-12 [5]) [mg/mL],"4M Gnd, 50 mM NaAc pH 4 Strip Conc (BMP-12 [5]) [mg/ml]",Flow-through K (BMP-12 [5]),Flow-through conc (BMP-12 [5]) [mg/mL],Flow-through K (BMP-12 [6]),further results
Ac-ELGWDDWIIAPLDYEAYHSEGLK [BMP12 N-trun_1S peptide 749],1,0.321,0.079,56,0.025,4,0.175,0.196,26,0.05,1,0.404,0,0.434,1,0.28,0.093,9,0.116,0,"Flow-through conc (BMP-12 [6]): 0.416 mg/mL; 100 mM HAc elution K (BMP-12 [7]): 6; 100 mM HAc elution conc (BMP-12 [7]): 0.098 mg/mL; 4M Gnd, 50 mM NaAc pH 4 Strip Conc (BMP-12 [7]): 0.141 mg/ml; Flow-through K (BMP-12 [7]): 5; Flow-through conc (BMP-12 [7]): 0.175 mg/mL; Flow-through K (BMP-12 [8]): -1; Flow-through conc (BMP-12 [8]): 0.653 mg/mL; 100 mM HAc elution K (BMP-12 [9]): 2; 100 mM HAc elution conc (BMP-12 [9]): 0.275 mg/mL; 4M Gnd, 50 mM NaAc pH 4 Strip Conc (BMP-12 [9]): 0.126 mg/ml; Flow-through K (BMP-12 [9]): 42; Flow-through conc (BMP-12 [9]): 0.032 mg/mL"
Ac-SDVGWNDWIVAPPGYHAFYSHGEK [BMP2 N-trun 1S peptide 751],1,0.355,0.053,38,0.035,1,0.219,0.089,6,0.156,1,0.411,0,0.435,0,0.254,0.044,4,0.216,0,"Flow-through conc (BMP-12 [6]): 0.425 mg/mL; 100 mM HAc elution K (BMP-12 [7]): 1; 100 mM HAc elution conc (BMP-12 [7]): 0.102 mg/mL; 4M Gnd, 50 mM NaAc pH 4 Strip Conc (BMP-12 [7]): 0.046 mg/ml; Flow-through K (BMP-12 [7]): 1; Flow-through conc (BMP-12 [7]): 0.349 mg/mL; Flow-through K (BMP-12 [8]): -1; Flow-through conc (BMP-12 [8]): 0.647 mg/mL; 100 mM HAc elution K (BMP-12 [9]): 1; 100 mM HAc elution conc (BMP-12 [9]): 0.285 mg/mL; 4M Gnd, 50 mM NaAc pH 4 Strip Conc (BMP-12 [9]): 0.07 mg/ml; Flow-through K (BMP-12 [9]): 9; Flow-through conc (BMP-12 [9]): 0.124 mg/mL"
Ac-VAPPGYHAFYSHGEK [BMP2 N-trunc_2 peptide 745],-1,0.104,0.027,0,0.426,1,0.057,0.026,1,0.41,0,0.435,0,0.464,0,0.077,0.021,1,0.397,0,"Flow-through conc (BMP-12 [6]): 0.431 mg/mL; 100 mM HAc elution K (BMP-12 [7]): 1; 100 mM HAc elution conc (BMP-12 [7]): 0.058 mg/mL; 4M Gnd, 50 mM NaAc pH 4 Strip Conc (BMP-12 [7]): 0.024 mg/ml; Flow-through K (BMP-12 [7]): 1; Flow-through conc (BMP-12 [7]): 0.397 mg/mL; Flow-through K (BMP-12 [8]): -1; Flow-through conc (BMP-12 [8]): 0.626 mg/mL; 100 mM HAc elution K (BMP-12 [9]): 0; 100 mM HAc elution conc (BMP-12 [9]): 0.073 mg/mL; 4M Gnd, 50 mM NaAc pH 4 Strip Conc (BMP-12 [9]): 0.026 mg/ml; Flow-through K (BMP-12 [9]): 1; Flow-through conc (BMP-12 [9]): 0.407 mg/mL"
Ac-SDVGWNDWIVAPPGYHAFYCHGEK [BMP2 N-trun peptide 750],1,0.311,0.06,36,0.037,2,0.194,0.087,6,0.164,1,0.364,0,0.423,0,0.187,0.046,2,0.29,1,"Flow-through conc (BMP-12 [6]): 0.342 mg/mL; 100 mM HAc elution K (BMP-12 [7]): 1; 100 mM HAc elution conc (BMP-12 [7]): 0.096 mg/mL; 4M Gnd, 50 mM NaAc pH 4 Strip Conc (BMP-12 [7]): 0.044 mg/ml; Flow-through K (BMP-12 [7]): 1; Flow-through conc (BMP-12 [7]): 0.337 mg/mL; Flow-through K (BMP-12 [8]): -1; Flow-through conc (BMP-12 [8]): 0.577 mg/mL; 100 mM HAc elution K (BMP-12 [9]): 1; 100 mM HAc elution conc (BMP-12 [9]): 0.226 mg/mL; 4M Gnd, 50 mM NaAc pH 4 Strip Conc (BMP-12 [9]): 0.072 mg/ml; Flow-through K (BMP-12 [9]): 6; Flow-through conc (BMP-12 [9]): 0.163 mg/mL"
